Results as given in IntAct's records for PubMed 17588514.

B1: Replication restart protein PriB (Escherichia coli (strain K12)), P07013 (parent)
chain: MTNRLVLSGTVCRAPLRKVSPSGIPHCQFVLEHRSVQEEAGFHRQAWCQMPVIVSGHENQAITHSITVGSRITVQGFISCHKAKNGLSKMVLHAEQIELIDSGD
partner: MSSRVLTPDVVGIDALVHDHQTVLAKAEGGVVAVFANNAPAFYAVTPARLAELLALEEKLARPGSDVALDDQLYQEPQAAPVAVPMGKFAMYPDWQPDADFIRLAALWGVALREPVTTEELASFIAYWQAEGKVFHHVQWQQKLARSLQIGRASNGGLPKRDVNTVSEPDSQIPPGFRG

Variants of: B1
Conditions: with dnat_ecoli dnaT

effect of a mutation on the interaction	Variant
increasing interaction	MTNRLVLSGTVCRAPLRKVSPSGIPHCQFVLEHRSVQEEAGFHRAAWCQMPVIVSGHENQAITHSITVGSRITVQGFISCHKAKNGLSKMVLHAEQIELIDSGD [Q45A]
decreasing interaction	MTNRLVLSGTVCRAPLRKVSPSGIPHCQFVLEHRSVQEEAGFHRQAACQMPVIVSGHENQAITHSITVGSRITVQGFISCHAAKNGLSKMVLHAEQIELIDSGD [W47A;K82A]
